From doi:10.1101/2020.10.06.328377

Experiments:
[1] = biological target: MsSepF_(core) (Methanobrevibacter smithii SepF, C-terminal FtsZ-binding core, amino acids 54 to 149) (Methanobrevibacter smithii)
[2] = biological target: MsSepF_(core) (Methanobrevibacter smithii SepF, C-terminal FtsZ-binding core, amino acids 54 to 149) (Methanobrevibacter smithii); experiment: thermal shift assay

Row | Molecule | stoichiometry N [1] | melting temperature of MsSepFcore upon addition of MsFtsZCTD (70.6 °C without) [2]
1 | MsSepF_(core) (Methanobrevibacter smithii SepF, C-terminal FtsZ-binding core, amino acids 54 to 149) (domain or fragment) | 2 | –
2 | NEDQLDDFIDGIF [FtsZCTD peptide (C-terminal domain of M. smithii FtsZ)] | – | 82.3 °C
